# Values quoted from earlier work, collected in publication PMC3486867.
# Target: Asp408 (UniProt position 408, GLLVDDAIVVV)
# Experiment: chemical modification (inferred from the title of ref 54: site-directed mutagenesis and carbodiimide labeling)
substance,measurement,value
Multidrug transporter AcrB (not stated (Escherichia coli inferred)),pKa,7.4
